Measured values published in the supplement of paper PMC7877785.
± gives the uncertainty stated by the source.

Test: self-splicing fitness, log relative to wild type (ln ratio); higher = more splicing; Tetrahymena group I intron in knt gene, E. coli kanamycin selection, DiMSum; sequences stand for … in CUCUCU…GGAGGGAAAAGUUAUCAGGCAUGCACCUGGUAGCUAGUCUUUAAACCAAUAGAUUGCAUCGGUUUAAAAGGCAAGACCGUCAAAUUGCGGGAAAGGGGUCAACAGCCGUUCAGUACCAAGUCUCAGGGGAAACUUUGAGAUGGCCUUGCAAAGGGUAUGGUAAUAAGCUGACGGACAUGGUCCUAACCACGCAGCCAAGUCCUAAGUCAACAGAUCUUCUGUUGAUAUGGAUGCAGUUCACAGACUAAAUGUCGGUCGGGGAAGAUGUAUUCUUCUCAUAAGAUAUAGUCGGACCUCUCCUUAAUGGGAGCUAGCGGAUGAAGUGAUGCAACACUGGAGCCGCUGGGAACUAAUUUGUAUGCGAAAGUAUAUUGAUUAGUUUUGGAGUACUCGUGGUCG
Method in brief: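 A randomised library covering all eight P1ex-region intron nucleotides was built with the intron in the knt kanamycin-resistance gene on pET-22b(+) and held in E. coli BL21(DE3). Cells were grown overnight at 37°C or 30°C on LB agar, with or without 25 μg/mL kanamycin, plus 100 μg/mL carbenicillin, 50 μM IPTG and 0.2% rhamnose, and pooled colonies were amplicon-sequenced on an Illumina HiSeq 2500. DiMSum fitness is the error-weighted combination of wild-type-normalised replicate fold changes, kanamycin versus none.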

Row | Sequence | self-splicing fitness (ln) (30 °C) | self-splicing fitness (ln) (37 °C)
1 | CAUGAGCAAUAUUACGUCCU | -4.2 ± 0.32 | -1.88 ± 0.2
2 | CAUGAGCAAUAUUACGUCUA | -2.57 ± 0.17 | -2.28 ± 0.21
3 | CAUGAGCAAUAUUACGUGAA | -3.86 ± 0.3 | -2.53 ± 0.29
4 | CAUGAGCAAUAUUACGUGCU | -3.6 ± 0.38 | -2.39 ± 0.32
5 | CAUGAGCAAUAUUACGUGUU | -3.85 ± 0.16 | -2.31 ± 0.15
6 | CAUGAGCAAUAUUACGUUGG | -2.69 ± 0.17 | -1.81 ± 0.15
7 | CAUGAGCAAUAUUACGUUUU | -3.66 ± 0.21 | -2.86 ± 0.24
8 | CAUUAGCAAUAUUACGAAUA | -2.12 ± 0.14 | -0.64 ± 0.13
9 | CAUUAGCAAUAUUACGAGUU | -3.7 ± 0.17 | -2.67 ± 0.18
10 | CAUUAGCAAUAUUACGAUAA | -2.24 ± 0.2 | -1.75 ± 0.23
11 | CAUUAGCAAUAUUACGAUCG | 0.173 ± 0.082 | 0.274 ± 0.12
12 | CAUUAGCAAUAUUACGAUUC | -2.1 ± 0.18 | -0.901 ± 0.17
13 | CAUUAGCAAUAUUACGCCUA |  | -1.73 ± 0.31
14 | CAUUAGCAAUAUUACGCGCU | -2.9 ± 0.21 | -1.51 ± 0.26
15 | CAUUAGCAAUAUUACGCGUG | -3.16 ± 0.15 | -2.89 ± 0.24
16 | CAUUAGCAAUAUUACGCUCU | -2.64 ± 0.2 | -1.43 ± 0.22
17 | CAUUAGCAAUAUUACGGAGG | -0.36 ± 0.11 | -0.878 ± 0.16
18 | CAUUAGCAAUAUUACGGCUC | -3.78 ± 0.28 | -1.39 ± 0.18
19 | CAUUAGCAAUAUUACGGUAC | -1.9 ± 0.16 | -2.07 ± 0.46
20 | CAUUAGCAAUAUUACGGUUG | -1.63 ± 0.09 | -0.664 ± 0.11
21 | CAUUAGCAAUAUUACGUAUC | -3.14 ± 0.31 | -2.26 ± 0.28
22 | CAUUAGCAAUAUUACGUCAU | -4.39 ± 0.3 | -2.48 ± 0.21
23 | CAUUAGCAAUAUUACGUCGA | -2.75 ± 0.14 | -2.05 ± 0.12
24 | CAUUAGCAAUAUUACGUGCU | -4.27 ± 0.24 | -2.36 ± 0.27

Row | Sequence | self-splicing fitness (ln) (30 °C) | self-splicing fitness (ln) (37 °C)
25 | CCAAAGCAAUAUUACGAAGU | -3.04 ± 0.15 | -2.42 ± 0.2
26 | CCAAAGCAAUAUUACGAAUA | -3.55 ± 0.32 | -1.51 ± 0.18
27 | CCAAAGCAAUAUUACGACAU | -3.658 ± 0.02 | -2.82 ± 0.037
28 | CCAAAGCAAUAUUACGACGC | -3.71 ± 0.35 | 
29 | CCAAAGCAAUAUUACGAGGG | -3.76 ± 0.22 | -1.56 ± 0.16
30 | CCAAAGCAAUAUUACGAGGU | -4.24 ± 0.2 | -1.71 ± 0.13
31 | CCAAAGCAAUAUUACGAUAA | -3 ± 0.17 | -0.828 ± 0.18
32 | CCAAAGCAAUAUUACGAUAG | -0.734 ± 0.086 | 0.171 ± 0.11
33 | CCAAAGCAAUAUUACGCAAA | -3.41 ± 0.25 | -1.72 ± 0.17
34 | CCAAAGCAAUAUUACGCACA | -3.55 ± 0.34 | -1.66 ± 0.32
35 | CCAAAGCAAUAUUACGCCAA | -2.73 ± 0.2 | -1.96 ± 0.23
36 | CCAAAGCAAUAUUACGCCGG | -5.01 ± 0.41 | -2.38 ± 0.2
37 | CCAAAGCAAUAUUACGCGCC | -3.43 ± 0.21 | -2.71 ± 0.27
38 | CCAAAGCAAUAUUACGCGGG | -4.4 ± 0.42 | -1.38 ± 0.16
39 | CCAAAGCAAUAUUACGCUUU | -3.57 ± 0.16 | -2.73 ± 0.21
40 | CCAAAGCAAUAUUACGGACC |  | -1.51 ± 0.29
41 | CCAAAGCAAUAUUACGGACU | -2.27 ± 0.13 | -2.84 ± 0.22
42 | CCAAAGCAAUAUUACGGAGA | -4.23 ± 0.42 | -1.92 ± 0.23
43 | CCAAAGCAAUAUUACGGAUC | -3.45 ± 0.23 | -2.47 ± 0.39
44 | CCAAAGCAAUAUUACGGCAA | -3.15 ± 0.27 | -2.73 ± 0.25
45 | CCAAAGCAAUAUUACGGCCU | -3.59 ± 0.18 | -3.33 ± 0.37
46 | CCAAAGCAAUAUUACGGCGA | -3.26 ± 0.21 | -3.01 ± 0.19
47 | CCAAAGCAAUAUUACGGGCC | -2.51 ± 0.46 | -2.23 ± 0.42
48 | CCAAAGCAAUAUUACGGGCU | -2.45 ± 0.13 | -3.3 ± 0.23
